Experimental data published in the nanobody polyreactivity screen of Harvey et al. (2022).

Test: yeast display, Sf9 membrane polyspecificity reagent, FACS + sequencing; frameworks hold sequencing errors
Procedure, shortened: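 Using colony PCR, genes from sorted yeast display clones were amplified, then sequenced on MiSeq at 2 × 250 and filtered by CDR length. The clones had been stained with 10% biotinylated, detergent-solubilized Sf9 membrane reagent for 1 hour at 4 °C and sorted by FACS into low and high (top ~1%) gates on anti-HA and streptavidin fluorescence. Polyreactivity labels come from the gate of origin.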

Sequence | polyreactivity (PSR sort gate)
QVQLVESGGGLVQAGGSLRLSCAASGFTFAYYTMGWYRQAPGKERELVVVINRSGSTNYADSVKGRFTISRDNAKNTVYLQMNSLKPEDTAVYYCATGVALRYGYWGQGTQVTVSS | low polyreactivity
QVQLVESGGGLVQAGGSLRLSCAASGFTFDAYTMGWYSQAPGKERELVAAITWSGGRTYYADSVKGRCTISRDNAKTTVYLQLNSLKPEDTALYNCAADSPTSLYEYWGQGTQVTVSS | high polyreactivity
QVQLVESGGGLVQAGGSLRLSCAASGFTFDENAMGWYRQAPGINYSGASTYYADSVKGRFTISRDNAKNTVYLQMNSLKPDDTAVYYCAAEVVAQMNYWGQGTQVTVSS | low polyreactivity
QVQLVESGGGLVQAGGSLRLSCAASGFTFDGYGMGWYRQAPGKERELVAVITSGGSTKYADSVKGRFTISRDNAKNTVYLQMNSLNPEDTAVYYCNVVGGRYLYSAYDYWGQGTQVTVSS | low polyreactivity
QVQLVESGGGLVQAGGSLRLSCAASGFTFDHNAMGWYRQAPGKERELVARITGTGDSTYYADSVKGRFTISRDNAKKTVYLQMNSLNPEDSADYYCNADRRYDFYDGYGYWGQGTQVTVSS | low polyreactivity
QVQLVESGGGLVQAGGSLRLSCAASGFTFDIYGMGWYRQAPGKERELVASITSRSARTNYADSVKGRFRISRDNAMNTVYLQMNSLKPEDSAVYYCAADPYTGYTYYWGQVTQVTVSS | high polyreactivity
QVQLVESGGGLVQAGGSLRLSCAASGFTFDKYAMGWYRQAPGKESELVAAISRGGGTKYADSVKGRFTISRDNAKNTVYLQMNSLKPEDTAVYYCVAKFRPDLSRGAYEYWGQGTQVTVSS | high polyreactivity
QVQLVESGGGLVQAGGSLRLSCAASGFTFDLYARGWYRQAPGKERELVAAISSSCGSTYYADSVKGRFTISRDNAKNTVYLQMNSLKPEDTAVYDCARRYLYSSRLVTKYGYGMDYWGQGTQVTVSS | high polyreactivity
QVQLVESGGGLVQAGGSLRLSCAASGFTFDPYAMGWYREAPGKERELVAAISFSGGSTSYADSVKGRFTISRDNAKNSVYFQMNSLKPEDTAVYYCAAYSWLYEGYEYWGQGTQVTVSS | high polyreactivity
QVQLVESGGGLVQAGGSLRLSCAASGFTFDPYAMGWYRQAPGKERELVAAISFSGGSTSYADSVKGRFTISRDNAKNTVYLQMNSLKPEDTAVYYCAAYSWLYEGYEYWGLGTQVTVSS | high polyreactivity
QVQLVESGGGLVQAGGSLRLSCAASGFTFDPYAMGWYRQAPGKERELVAAISISGGRTYYADSVKGRFTISRDNAKNTVYLQMNSLKPEDTAVYYCAVAQSHYFGGYGYWGQGTQVTVSS | low polyreactivity
QVQLVESGGGLVQAGGSLRLSCAASGFTFDRYAMGWYRQAPGKERELVAAISRSGASTYYADSVKGRFTISRDNAKNTVYLQMNSLKPEDTAVDDCAAKQRTKGDYWGQGTQVTVSS | high polyreactivity
QVQLVESGGGLVQAGGSLRLSCAASGFTFDRYAMGWYRQAPGKERELVAAISVSGGRTYYADSVKGRFTISRDNAKNTVYLQMNSLKPEDTAVYYCAARDHSRSRFGYDYLGQGTQVTVSS | high polyreactivity
QVQLVESGGGLVQAGGSLRLSCAASGFTFDRYAMGWYRQAPGKERELVAAITSRGGRTYYADSVKGRFTISRDNAKNTVYLQMNSLKPEDTAVYYCNAVYSQSGYFYRFDYWGQVTQVTVSS | high polyreactivity
QVQLVESGGGLVQAGGSLRLSCAASGFTFDSNAMGWYRQAPGKERELVAAISKRGGSTYYADSVKGRFTISRDNAKNTVYLQMNRLKPEDTAVYYCAADNYNSGGTRHMYYWGQGSQVTVSS | high polyreactivity
QVQLVESGGGLVQAGGSLRLSCAASGFTFDSNAMGWYRQAPGKERELVAAISSSGGSTYYADSVKGRFTISRDNAKNTVYLQMNSLKPEDTAVYYCNARRRTVPYRYDYWGQGTQVTVSS | high polyreactivity
QVQLVESGGGLVQAGGSLRLSCAASGFTFDSYAMGWYRQAPGKERELVAAITSGDSTHYADSVKGRFTISRDNAKNTVYLQMNSLKPEDTAVYYCAASGFPYPYDYWGQGTQVTVSS | low polyreactivity
QVQLVESGGGLVQAGGSLRLSCAASGFTFDSYAMGWYRQAPGQERELVPAISSSSSTNYADSVKGRFTISRDNAKNTVYLPLNSLKPEDTAVYYCNADSPEGYRLLDYWGQGTQVTVSS | low polyreactivity
QVQLVESGGGLVQAGGSLRLSCAASGFTFDTNVRGWYRQAPGKERELVAAITGPGGSTYYADSVKGRFTISRDNAKNTVYLQMNSLNPEDTAVYYCNRVYYRRRLYDYWGQGTQVTVSS | high polyreactivity
QVQLVESGGGLVQAGGSLRLSCAASGFTFDVYAMGWYRQAPGKERELVAAIDSGGSTNYADSVKGRFTISRDNAKNTVYLQMNSLKPEDTAVYYCAAPFVGSVVIRRWDEYDYWGQGTQVTVSS | low polyreactivity
QVQLVESGGGLVQAGGSLRLSCAASGFTFDVYTMGWYRQAPGKEREFVAAISGSGGSTYYADSVKGRFTISRDNAKNTVYLQMNSLKPEDTAVYYCNAGLSRVSHRHRSHSLQGYDYWGQGTQVTVSS | low polyreactivity

Sequence | polyreactivity (PSR sort gate)
QVQLVESGGGLVQAGGSLRLSCAASGFTFDVYTMGWYRQAPGKERELVASITYSGGDTYADSVKGRFTISRDNAKNTVYLQMNRLKPEDTAVYYCNAVVYYYLDEYWGQGTQVTVSS | high polyreactivity
QVQLVESGGGLVQAGGSLRLSCAASGFTFDWNAMGWYRQAPGKERELVAAISSSTGRTYYADSVKGRFTISRDNAKNTVYLQMNSLKPEDTAVYYCAASLGGYGERYYYWGQGTQVTVSS | high polyreactivity
QVQLVESGGGLVQAGGSLRLSCAASGFTFDWYAMGWYRPAPGKERELVAAISSGGNTKYADSVKGRFTISRDNAKNTVYLQMNSLKPEDTAVYYCAARLYYSLSYYYWGQGTQVTVAS | high polyreactivity
QVQLVESGGGLVQAGGSLRLSCAASGFTFDWYAMGWYRQAPGKERELVAAISSGGNTKYADSVKGRFTISRDNAKNTVYLQMNSLKPEDTAVYYCAARLYYSLSYYYWGQGTQVTVSS | high polyreactivity
QVQLVESGGGLVQAGGSLRLSCAASGFTFDYYAMGRDIPAPGKERELVAAISRAGSTNYADSVKGRFTISRDNAKNTVYLQMNSLKPEDTAVYYCNKGYHSWSRLSQFGWSYDYWGQGTQVTVSS | high polyreactivity
QVQLVESGGGLVQAGGSLRLSCAASGFTFDYYAMGWYRQAPGKERELVAAINYSGGSTYYADSVKGRFTISRDNAKNTVYLQMNSLKPEDTAVYYCNAVGYSVFRRYNYWGQGTQVTVSS | high polyreactivity
QVQLVESGGGLVQAGGSLRLSCAASGFTFDYYAMGWYRQAPGKERELVAAISSSGGSTYYADSVKGRFTISRDNAKNTVYLQMNSLKPEDTAVYYCATGHSKKYDYWGQGTQVTVSS | high polyreactivity
QVQLVESGGGLVQAGGSLRLSCAASGFTFDYYAMGWYRQAPGKERELVAAITRSGTRTYYADSVKGRFTISRDNAKNTVYLQMNSLKPEDTAVYYCNVEYPKRANLSDYWGQGTQVTVSS | high polyreactivity
QVQLVESGGGLVQAGGSLRLSCAASGFTFDYYTMGWYRQAPGKERELVAAITSSAGSTDYADSVKGRFTISRDYAKNTVYLQMNSLKPEDTAVYYCNADFLYGTYDYWGQGTQVTVSS | low polyreactivity
QVQLVESGGGLVQAGGSLRLSCAASGFTFEDNTMGWYRQAPGKERELVAAITWGGVSTYYADSVKGRFTISRDNAKNTVYLQMNSLKPEDTAVYYCARDYDVYTVYLMDYWGQGTQVTVSS | low polyreactivity
QVQLVESGGGLVQAGGSLRLSCAASGFTFEENDMGWYRQAPGKETELVAAINWSGGNTYYADSVKGRFTISRDNAKNTVYLQMNSLKPEDTAVYYCAADSPRYYYWVGPYYGYDYWGQGTQVTVSS | high polyreactivity
QVQLVESGGGLVQAGGSLRLSCAASGFTFEFNVMGWYRQAPGKERELVASIRWGSTSYADSVKGRFTISRDNAKNTVYLQMNSLKPEDTALYDCAAVTYDYWRQGTQVTVSS | low polyreactivity
QVQLVESGGGLVQAGGSLRLSCAASGFTFEIYAMGWYRQAPGKEREFVASISWSVGSTYYADSVKGRFTISRDNAKNTVYLQMNSLKPEDTAVYYCNADWRHKYYHSYLYDYWGQGTQVTVSS | low polyreactivity
QVQLVESGGGLVQAGGSLRLSCAASGFTFERNAMGWYRQAPGKERELVATINGSSDSTYYSDSVKGRFTISRDNAKNTVYLQMNSLKPEDTAVYYCNADSITEGNSRYSHFDYWGQGTQVTVSS | low polyreactivity
QVQLVESGGGLVQAGGSLRLSCAASGFTFETYAMGWNRQAPGKERELVASISRSGGRTYYADSVKGRFTISRDNAKNTVYLQMNSLKPDDTAVYYCAAGYYVRYGRRPTGYGGYDYWGQGTQVTVSS | high polyreactivity
QVQLVESGGGLVQAGGSLRLSCAASGFTFEVNAMGWYRQAPGKERELVAAINRGGSTYYADSVKGRFTISRDNAKNTVYFQMNSLKPEDTAVYYCNRDYEYPTYPHDYWGQGTQVTVSS | low polyreactivity
QVQLVESGGGLVQAGGSLRLSCAASGFTFEWYTMRCYRQAPGKERELVADISGDGSTYYADSVKGRFTISRDNAKNTVYLQMNSLKPEDTAVYYCAARTRRYHRPGLSPGNYWGQGTQVTVSS | high polyreactivity
QVQLVESGGGLVQAGGSLRLSCAASGFTFEYYAMGWYRHAPGKERELVAAITSGGTTYYADSVKGRFTISRDNAKNTDYLQMNSLKPEDTAVYYCAAANRFGPYGYWGQGTQVTVSS | high polyreactivity
QVQLVESGGGLVQAGGSLRLSCAASGFTFEYYAMGWYRQAPGKERELVATITSGGSTYYADSVKGRFTISRDNAKNTVYLQMNSLKPDDTAVYYCITSSPWIEDYWGQGTQVTVSS | low polyreactivity
QVQLVESGGGLVQAGGSLRLSCAASGFTFEYYAMGWYRQARGKERELVASITNSGTRTYYADSVKGRFTISRDNAKNTVYLQMNSLKPEDTAVYYCAATPWNGRYSRFGYWGQGTQVTVSS | high polyreactivity
